Laboratory results published in patent publication US11124785B2, “Rothia subtilisins, S8A family proteases, as therapeutic enzymes for application in gluten intolerance disorders” (TRUSTEES OF BOSTON UNIVERSITY, priority 2016, dated 2021).

Key:
[1] = test system: R. mucilaginosa enzyme preparation (Rmep); test: Inhibitor profile of Rmep (Suc-AAPF-pNA hydrolysis); assay type: biochemical, Rothia mucilaginosa; conditions: for inhibition of Rmep activity: AEBSF 10 mM, aprotinin 0.08 mM, E-64 0.1 mM, EDTA 1.5 mM, PMSF 1 mM, Rmep 5.7 μg/ml, Suc-AAPF-pNA
Protocol: Inhibitors AEBSF, Aprotinin, E-64, EDTA, PMSF and Eglin C were tested at final concentrations of 10 mM, 0.08 mM, 0.1 mM, 1.5 mM, 1 mM, and 0.06 μM, respectively. Rmep was added at a final concentration of 5.7 μg/ml. The percent inhibition was determined from the ratio of the initial velocities of hydrolysis of Suc-AAPF-pNA (SEQ ID NO: 4) in the absence and presence of inhibitor.
(§1) Hydrolysis of paranitroanilide-derivatized substrates—Paranitroanilide (pNA)-derivatized tripeptide substrates were chemically synthesized at >90% purity (21st Century Biochemicals, Marlborough, Mass.). The substrates obtained were Z-YPQ-pNA, Z-QQP-pNA, Z-LPY-pNA, Z-PFP-pNA, Z-PPF-pNA, where Z=benzyloxycarbonyl, Y=tyrosine, P=proline, Q=glutamine, L=leucine, and F=phenylalanine Suc-AAPF-pNA (SEQ ID NO: 4) was obtained from Sigma, where Suc=N-succinyl and A=alanine. The peptides were dissolved in 75-100% DMSO at 10 mM, and were used at a final concentration of 200 μM in 50 mM TrisHCl pH 8.0. Purified Rothia enzyme or subtilisin A from Bacillus licheniformis (Sigma) were tested at final concentrations of 1 μg/ml. Some experiments were conducted in the presence of inhibitors 4-(2-Aminoethyl) benzenesulfonyl fluoride (AEBSF), Aprotinin, E-64, EDTA, phenylmethanesulfonyl fluoride (PMSF) and Eglin C, which were tested at final concentrations of 10 mM, 0.08 mM, 0.1 mM, 1.5 mM, 1 mM, and 0.06-1.2 μM, respectively. Enzymes were preincubated with the inhibitors for 20 min before adding Suc-AAPF-pNA (SEQ ID NO: 4). Substrate hydrolysis was monitored for 10 h at 405 nm using a Genios microtiter plate reader (Tecan, Männedorf, Switzerland) in the kinetic mode at 37° C.

[2] = test system: α-gliadin derived 33-mer peptide; test: Degradation of the 33-mer peptide (RP-HPLC); assay type: biochemical; conditions: 33-mer 250 μg/ml, NattoK 57 μg/ml, 0-120 min; large fragment remained
Protocol: FIG. 8D is a representative chromatogram of the RP-HPLC analysis of the degradation of the gliadin-derived 33-mer (250 μg/ml) incubated for 0, 15, 30 and 120 min with NattoK 57 μg/ml).
(§2) Degradation of mixed gliadins and the 33-mer peptide—Mixed gliadins were obtained from Sigma. A synthetic highly immunogenic α-gliadin derived 33-mer peptide (26) was synthesized at a purity of >90% (21st Century Biochemicals). Mixed gliadins or the 33-mer peptide (each at final concentration 250 μg/ml) were incubated with Rmep or subtilisin A (each at 57 μg/ml) in 50 mM TrisHCl, pH 8.0. After t=0, 15 min, 30 min, and 2 h, 100 μl sample aliquots were removed and boiled. Gliadin degradation was assessed by 4-12% SDS-PAGE followed by Coomassie staining, and 33-mer degradation was determined by RP-HPLC.
Reversed-phase high performance liquid chromatography (RP-HPLC)—Separation of the 33-mer peptide and its fragments was achieved by RP-HPLC, using buffer A (0.1% trifluoroacetic acid) and buffer B (0.1% trifluoroacetic acid in 80% acetonitrile) at a gradient of 0-55% buffer B over 75 min time interval. The equipment used was an HPLC Model 715 (Gilson, Middleton, Wis.) and a C-18 column (TSK-GEL […], ODS-120T, TOSOHaas, Montgomeryville, Pa.) (22, 25).

[3] = test system: Suc-AAPF-pNA; test: Hydrolysis of paranitroanilide-derivatized substrate Suc-AAPF-pNA; assay type: biochemical; conditions: substrate 200 μM; enzyme 1 μg/ml (NattoK: dilution series); 50 mM TrisHCl pH 8.0, 37° C.
Protocol: FIG. 4A and FIG. 4B are representative graphs of the hydrolysis of the substrates: Suc-AAPF-pNA (SEQ ID NO: 4), Z-YPQ-pNA, and Z-LPY-pNA, each at 200 μM, by Rmep and subtilisin A, respectively, each at 1 μg/ml.
FIG. 8C show a representative graph of the hydrolysis of the substrate, Suc-AAPF-pNA (SEQ ID NO: 4), with a dilution series of NattoK. Suc-AAPF-pNA (SEQ ID NO: 4) was incubated […]. Hydrolysis was measured at 405 nm.
as §1

[4] = test system: R5 epitopes (QQPFP and related pentapeptides) in mixed gliadins; test: R5 ELISA, gluten epitope elimination in gliadin digests; assay type: biochemical; conditions: gliadins 250 μg/ml, NattoK 57 μg/ml, 0-120 min
Protocol: FIG. 8E and FIG. 8F show the assessment of the survival of epitopes in the gliadin-NattoK degradation mixture employing the R5 ELISA (FIG. 8E) or G12 ELISA (FIG. 8F) assays. Epitope abolishment in Mixed gliadins (250 μg/ml) were incubated with NattoK (57 μg/ml) for 0, 15, 30 and 120 min and then assayed by the R5 ELISA or G12 ELISA.
R5 and G12 ELISA assays—Gluten epitope elimination in the gliadin-Rmep and gliadin-subtilisin A digests was assessed using two sandwich ELISA assays employing the R5 monoclonal antibody (RIDASCREEN Gliadin, R-Biopharm, Darmstadt, Germany) or the G12 monoclonal antibody (AgraQuant® ELISA Gluten G12, Romer labs, Union, Mo.). To prevent high background values, the R5 plate wells were blocked with 1% skim milk in PBS prior to incubation with the samples. The assays were performed according to the manufacturers' instructions and as described (21, 24).
To further investigate this, the time courses of degradation of mixed gliadins and the highly immunogenic 33-mer α-gliadin peptide were determined. Furthermore, epitope elimination was monitored by two ELISA assays employing the R5 antibody recognizing QQPFP (SEQ ID NO: 40) and related pentapeptides (27, 28) and the G12 antibody recognizing QPQLPY (SEQ ID NO: 22) contained in the 33-mer peptide (29, 30). Data obtained with Rmep are shown in FIG. 5, and with subtilisin A in FIG. 6.

[5] = test system: mixed gliadins; test: Degradation of mixed gliadins (SDS-PAGE); assay type: biochemical, wheat; conditions: gliadins 250 μg/ml; NattoK 57 μg/ml 0-120 min and dilution series 3.5-0.06 μg/ml 30 min
Protocol: FIG. 5A is a representative SDS-PAGE gel of non-digested gliadins (control) and Rmep-treated gliadins. Gliadins (250 μg/ml) in 50 mM Tris/HCl pH 8.0 were incubated with Rmep at 57 μg/ml. After 0, 15 min, 30 min and 2 h incubation 100 μl aliquots were removed, boiled and analyzed by SDS-PAGE and stained with COOMASSIE Brilliant Blue. The bold arrow (left) points to the position of the major band in the gliadin preparation; the thin arrow (right) to the 125 kDa band in the Rmep preparation, and the dotted arrows (right) to the gliadin degradation fragments.
FIG. 6A is a representative SDS-PAGE gel of non-digested gliadins (control) and subtilisin A-treated gliadins. Gliadins (250 μg/ml) in 50 mM Tris/HCl pH 8.0 were incubated with subtilisin A at 57 μg/ml. Experiments were conducted as described in the legend of FIG. 5 with subtilisin A instead of Rmep.
FIG. 8A is a representative SDS-PAGE gel of non-digested gliadins (control) and NattoK-treated gliadins. Mixed gliadins (G, 250 μg/ml) were incubated with NattoK (57 μg/ml) for 0, 15, 30 and 120 min. Left four lanes: controls without enzyme or gliadins, respectively, each at t=0 and 120 min. Arrow points to the major components in the gliadin mixture represented by α and γ-gliadins containing most of the immunogenic epitopes.
as §2

[6] = test system: gliadins; test: Gliadin degradation control of Example 3 (SDS-PAGE); assay type: biochemical; conditions: gliadins 500 μg/ml, enzyme 25 μg/ml, pH 8.0
Protocol: (§3) FIGS. 15A-15F show effective ATI degradation by subtilisins from B. subtilis (nattokinase). […] ATI (500 μg/ml) incubated with Rmep from R. mucilaginosa (FIG. 15A) or nattokinase from B. subtilis (FIG. 15C) at 50, 25, or 10 μg/ml; FIGS. 15B and 15D, Gliadins (500 μg/ml) incubated with Rmep (FIG. 15B) or nattokinase (FIG. 15D) at 25 μg/ml. FIGS. 15E and 15F, ATIs incubated with control heat inactivated enzymes, Rmep (FIG. 15E) or nattokinase (FIG. 15F).
(§4) ATIs were isolated from wheat cultivars as described^3. They were incubated at a final concentration of 500 μg/ml with 10, 25 or 50 μg/ml Rmep (from R. mucilaginosa), or nattokinase (from B. subtilis). The controls incubations were carried out with heat-inactivated Rmep and nattokinase. Experiments were conducted in 50 mM Tris-HCl, pH 8.0. After 0, 15 min, 30 min, 1 h, and 4 h incubation, 20 μl aliquots were removed, mixed with SDS-sample buffer, heated at 85° C. for 5 min and analyzed by 4-12% SDS PAGE. Proteins were visualized with Coomassie Blue staining.

[7] = test system: wheat ATI proteins; test: Degradation of amylase-trypsin inhibitors (SDS-PAGE); assay type: biochemical; conditions: ATIs 500 μg/ml
Protocol: as §3, §4

**Q.** How did the “inhibition of Rmep activity” value [1] turn out when `NCCc1ccc(S(=O)(=O)F)cc1` [AEBSF, 4-(2-Aminoethyl) benzenesulfonyl fluoride] was run?
**A.** inhibited effectively

**Q.** For `CC(C)C[C@H](NC(=O)[C@H]1O[C@@H]1C(=O)O)C(=O)NCCCCN=C(N)N` [E64], which “inhibition of Rmep activity” value [1] is on record?
**A.** not

**Q.** With `O=C(O)CN(CCN(CC(=O)O)CC(=O)O)CC(=O)O` [EDTA, ethylenediaminetetraacetic acid] as the molecule, how does the “inhibition of Rmep activity” value [1] read?
**A.** not

**Q.** Which “inhibition of the Rothia subtilisin by PMSF” value ([1]; 1 mM PMSF, stated as embodiment) does the source give for `O=S(=O)(F)Cc1ccccc1` [PMSF, phenylmethanesulfonyl fluoride] here?
**A.** 100%

**Q.** And the “inhibition of Rmep activity” value [1]?
**A.** inhibited effectively

**Q.** aprotinin was tested. Which “inhibition of Rmep activity” value [1] did it give?
**A.** partial inhibition

B1: NattoK: nattokinase, a 27.7 kDa subtilisin enzyme from B. subtilis, available in pure form as a dietary supplement (protein, listed as Bacillus subtilis)
chain: MRSKKLWISLLFALTLIFTMAFSNMSAQAAGKSSTEKKYIVGFKQTMSAMSSAKKKDVISEKGGKVQKQFKYVNAAAATLDEKAVKELKKDPSVAYVEEDHIAHEYAQSVPYGISQIKAPALHSQGYTGSNVKVAVIDSGIDSSHPDLNVRGGASFVPSETNPYQDGSSHGTHVAGTIAALNNSIGVLGVAPSASLYAVKVLDSTGSGQYSWIINGIEWAISNNMDVINMSLGGPTGSTALKTVVDKAVSSGIVVAAAAGNEGSSGSTSTVGYPAKYPSTIAVGAVNSSNQRASFSSVGSELDVMAPGVSIQSTLPGGTYGAYNGTSMATPHVAGAAALILSKHPTWTNAQVRDRLESTATYLGNSFYYGKGLINVQAAAQ
**Q.** B1 was tested. Which “degradation of the 33-mer peptide” value [2] did it give?
**A.** degraded the 33-mer peptide

**Q.** What about the “hydrolysis of Suc-AAPF-pNA” value [3] of the same molecule?
**A.** hydrolyzed

**Q.** What about the “abolishment of R5 epitopes” value [4] of the same molecule?
**A.** abolished

**Q.** And the “degradation of mixed gliadins” value [5]?
**A.** degraded gliadins effectively

**Q.** What about the degradation of gliadins [6] of the same molecule?
**A.** rapidly degraded

**Q.** What about the “ATIs degraded after 4 h incubation with 10 μg/ml enzyme” value ([7]; 10 μg/ml enzyme, 4 h) of the same molecule?
**A.** Approximately 50%

**Q.** And the “ATIs degraded after 1 h incubation with 50 μg/ml enzyme” value ([7]; 50 μg/ml enzyme, 1 h)?
**A.** Approximately 50%

**Q.** And the “degradation of wheat ATI proteins” value ([7]; enzyme 10, 25 or 50 μg/ml, pH 8.0, up to 4 h)?
**A.** susceptible to proteolysis
